This note sets out measurements from the supplement of paper PMC12042874.

± gives the uncertainty stated by the source.

A short description of this data set: amyloid nucleation score (Sup35N fusion, yeast selection) (log enrichment); library NNK1; higher = more nucleation; inactive = no reads after selection. Summed up: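 Using DiMSum, nucleation scores were taken as the log enrichment of output over input reads, centred on the mode score of non-aggregating sequences. The input and output reads came from Illumina sequencing of plasmid inserts, with sequences under 100 input reads excluded. The yeast were psi-negative, expressed Sup35N fused to peptides of 20 random codons, were induced with 100 μM copper sulfate for 24 hours, and were grown 7 days at 30°C on medium lacking adenine and uracil.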
PRNPMRSESILFCGNFVGRK: the amyloid nucleation score was -0.759 ± 0.59. Under PRYNCYQQHEVALDFSSLRC stands -0.297 ± 0.54. Regarding PSFSDLSHALGSSLESWGYR, the amyloid nucleation score worked out at 0.021 ± 0.8. The substance PSNLRDWHSSQFNREEEDAY came in with an amyloid nucleation score of 0.467 ± 0.46. The substance PSRATYCRGSMIHLIFDWIT gave an amyloid nucleation score of 0.955 ± 0.54. Then PSRVKLKISKLL, with -0.647 ± 0.94.

For PSTPQSHKMMGYRFRDRTGW, the amyloid nucleation score was -1.03 ± 2.7.

Take PSTTLFWLVMRKHILQHTRR: the amyloid nucleation score is -0.215 ± 0.28. Consider PTGNGKLFSGKYYPYDVRRS, for which the amyloid nucleation score was -0.169 ± 0.29.

With PTGVMM, the amyloid nucleation score was -0.338 ± 0.51. Then PTLVRECFEALSVSDYPVPG, with -0.674 ± 1.7; and PTMLKNRGVLSQPHIIFSYR, with -0.333 ± 0.34; and PTVLTVLFNRPFRSCN, with -0.178 ± 0.61. PTYIKLILTAHYLSEFRSNV registered an amyloid nucleation score of 1.02 ± 0.17. Under PVAVVGILHPVFDRRPMRTV stands -0.031 ± 0.89. As to PVFCPRV, the amyloid nucleation score is -1.55 ± 1.3. Under PVGNPLD stands -0.039 ± 0.18; under PVGRCDQRDTRIHWGNYKVE, “inactive”; under PVLYNHCGVNLCPTLCLSNY, 7.199 ± 0.053. With PWCTGRLTGSNCKVYWITRS, the amyloid nucleation score is 0.515 ± 0.36. As to PWNLIISSYASYYTCKVLVS, the amyloid nucleation score was -0.563 ± 1.1. Take PWSPTVIRPVFSEKGQFSQL: the amyloid nucleation score was -0.538 ± 0.59.

As to PWSRDARPSADW, the amyloid nucleation score result is “inactive”. In turn, PWVTLVRAMCMFINVDLVSR returned an amyloid nucleation score of 0.201 ± 0.72. Then PYKLFHVVSCCRTQGDNVAK, with -0.813 ± 0.49; and PYKLGCICITNDFSQAPTVA, with -0.652 ± 0.92; and PYLYRTLKKPLATHWSQFVK, with -1.22 ± 0.9. PYSSDAKMCHLLETASNLLV had an amyloid nucleation score of 0.577 ± 0.56. The substance PYVFLGVMDPRVYDMLLHAN displayed an amyloid nucleation score of -0.085 ± 0.24.

On to PYVFPVRYYSTILWYAIYVR, for which the amyloid nucleation score is 0.558 ± 0.28. Under PYWSDKWVFCRLKVVFIHVL stands -0.066 ± 0.69; under PYWWS, “inactive”; under QCRILAHAGLLPSGTCPMWL, -0.919 ± 0.92. For the substance QDCARH, the amyloid nucleation score result was “inactive”. Regarding QDFILDNCFPEGNLVCFKGV, the amyloid nucleation score stood at 0.361 ± 0.58. Under QDTVFYMTDWGCGATKARDD stands 0.117 ± 0.94. Then QEDRGPLLHFRLNSYNVMTQ, with 0.471 ± 0.62; and QEGCQTLTSTSLVGGRKESS, with 0.872 ± 0.75; and QELICMGSEYVFPNWTSFRA, with -0.412 ± 0.49. QELWHMYSIYYVFRTGDHIY: the amyloid nucleation score was -0.163 ± 0.27.

Regarding QFDVVMMWQTE, the amyloid nucleation score is -0.189 ± 0.3. Under QFFTILCTGILLLNASTRLL stands -0.777 ± 2.4.

The substance QFMIICHMMVNNW came in with an amyloid nucleation score of 7.003 ± 0.044. Under QFSCIPESTYSS stands 0.047 ± 0.41; under QGCPRVWRSQSCCGVGGVIP, “inactive”; under QGINLVY, -0.342 ± 0.38.

Substance QGLNNMHSGVVLKMLT returned an amyloid nucleation score of 1.22 ± 0.54. QGSDAYHSMNMQLWVSRTLT displayed an amyloid nucleation score of 0.18 ± 0.36. Under QGSPARMCVL stands 0.629 ± 1; under QHCRA, 0.639 ± 0.88. Under QHHSRRMNLGC stands -0.407 ± 0.32; under QHTNTSLSVTTPPVLYWNHC, 0.419 ± 0.45; under QHYMQVIDLGSWWSSWVYFI, -0.005 ± 0.97.

Consider QIIEPRARENGRINMMMVGG, for which the amyloid nucleation score turned out to be 0.481 ± 0.61.

Turning to QILCLTVVSVFQGYSVMIPF, the amyloid nucleation score was determined as 0.022 ± 0.32.

Consider QINLSGVSVDEWLSLWYGVL, for which the amyloid nucleation score came out at 0.468 ± 0.72. Under QIPPRDL stands 0.274 ± 0.51; under QIRGGGAGSDSVDGHRALEA, 1.08 ± 0.59; under QISVGTYWFANWCGIILNQV, 1.99 ± 0.28. Consider QISVNQIY, for which the amyloid nucleation score entry is “inactive”.

Substance QKIDNSIGQFYRKI came in with an amyloid nucleation score of -1.15 ± 0.59. As to QKLCCLSNVVLNTGP, the amyloid nucleation score result is “inactive”. Then QLCGFITCIISMSLPGYQCE, with 7.816 ± 0.052; and QLCGVVK, with -1.07 ± 1.6.

QLFMHPRGIMKGLF yielded an amyloid nucleation score of 0.581 ± 0.52.

QLFVRFGRSARLVIAESQKA came in with an amyloid nucleation score of -0.077 ± 0.33. Then QLNLNLFACQCSTV, with 8.072 ± 0.076; and QMGCAYEDARRSHDFKCCFG, with 0.013 ± 0.42. Under QMTCSD stands 1.6 ± 0.8; under QMYFSFYLLCCLSSEFSI, 3.02 ± 0.11; under QNFDHTIHRISVVVPGA, -0.099 ± 1.6.

Substance QNLYVLDSYSLLNNFVSCII returned an amyloid nucleation score of -0.623 ± 0.35. Then QNMLDWLKLGLYYHNFQAWV, with -0.94 ± 2.7; and QNMLFTIKRFSNQPDTVVFE, with -0.202 ± 0.49; and QNPFSTSHIVRSLLCLNDVI, with “inactive”. Then QNRLS, with 2.28 ± 0.61; and QRECWMYMMFMGYHLLEAQV, with 0.215 ± 1.2; and QRGMTIL, with 0.109 ± 0.31. In the case of QRHITSL, the amyloid nucleation score was -1.37 ± 1.9. QRIFTRLIYIRYAIPKFRTK came in with an amyloid nucleation score of -0.399 ± 0.32. Under QRNHWLYGVTLMPCSHICIL stands 7.594 ± 0.053; under QRNVPIGLVRYDAV, 0.45 ± 1.1; under QRRHYTWMLIRKRSSLHKAR, -0.462 ± 0.59. Under QSFFHCVLYAIPHVRLS stands -1.07 ± 1.1; under QSICFYSLKQCIRAKHR, 0.774 ± 0.37; under QSNLYLLALELAYECYSGCH, 0.049 ± 0.72. As for QTGQRFALKDSTSNSIPYLE, the amyloid nucleation score is -0.607 ± 0.96.

Substance QTGRFDIVSAS returned an amyloid nucleation score of 3.52 ± 0.069. Then QTLGVGSRYVNVNSGLITQL, with -0.05 ± 0.29; and QTNMMSTHHP, with 0.39 ± 0.41; and QTRSPQFKPAAYRVFLVDLC, with -0.159 ± 0.77. Then QTRWACTTQCGCKCFFE, with 1.53 ± 0.15; and QVFVIIIFPCMQWYDMYCSD, with 0.356 ± 0.55; and QVLQNCRGTFDDRILLFNGI, with -0.288 ± 0.8. Consider QVNLANFGRRKCKRKGR, for which the amyloid nucleation score came to 0.185 ± 0.44.

In the case of QVSANSY, the amyloid nucleation score is 3.59 ± 0.082. Under QVWSPHSVSKFGPGPPVTEA stands -0.388 ± 1.4; under QWNEDLSLWPDLKYGHMLLS, 0.052 ± 0.52; under QYDFQ, -0.532 ± 0.88. Then QYGWCIAYSLELCSLSPNLI, with 0.326 ± 0.37; and QYYFDLIDLGITVDVMS, with 0.684 ± 0.84; and RADPYVYLMEGVCGPRWEPN, with 0.014 ± 0.77.

RANSGNVTFMVRPAFMVVLK showed an amyloid nucleation score of -0.389 ± 0.78.
